The NTF2 design screens of Basanta et al. (2020)

Experiment: protease stability score; higher = more stable; yeast display proteolysis, trypsin and chymotrypsin;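 further: log10 excess protease needed over predicted unfolded state with 0 meaning unfolded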

Sequence: DEEMNKRAKRLVDVLRTGDFREFLEMVDPNARVQIGDKSWHGMEDYVHDLKEKRDQIKMHYEVKHMTAHDGRAHLEIDAEANVNGQPLSFSFTLHLQFQNGRVTHAEYQLDEDRLRKLEQ
- protease stability score: 0.911

Sequence: DEEVLDTVLKALSTNNEEQFHRMADPNDRVSYGDKSIHGMVKAADVQREFRKRVDHIHIQRYDSEGDKAKVTYVAHVDGRNINITITFDVRNGTIRSINIRARNEKNQKRFEEVVG
- protease stability score: 0.245

Sequence: DERNERVFHHFVEAISFNDPQQARRNADKDVKFDVGEKVLHGREEWDKQMEHNKKHMRQDMRVKEVSTSGDKVTARVEQEHNHNGKPSTRDVKMSVEINNGKIKSFRLTTVS
- protease stability score: -0.129

Sequence: DEKKAEEVATRVLEYIRDGNADDVKKLGKEGGQVQLGDTQLNGVDQLYKYVQDFHKQGIHVEYKEHEAKGDTVTFHTTARRGDAQIEFEVHYVVKGDVVERMEVRQDRKQVKEFKDS
- protease stability score: -0.084

Sequence: DEEAAKLMRKMQQAVRSNNPEEVQRMMDPNASAKYGDKEVHGREEIATHLVKETRRMHIHYDVEHITVDNGRADVTADVQQEHNGKPERRKYKVHIEVRGDKLVHLRFETRK
- protease stability score: 0.06

Sequence: DRHDMHKLEEIWKAIQTGDKDRVKELADPNAEFNVGDKTYHGMDQYITDLKKKRDQMRVHLELQSLDVKNGRARAVAVLRNEHNGTPDQRKFKVNATFRNGRLQHLKLQELS
- protease stability score: 0.021

Sequence: EEELEEQLHRLLQLIREGNEHKVKEQMDPNVKVVYGDKEYKGRDEVETYLEEVINHWRVNFRVKHITVKGDKVDMKAEASYTHNGRPVNRKLTINAEIHNGRFKTLEFKWDG
- protease stability score: 0.214

Sequence: DEEDHQKIAHSLAEVLKTGDPDRMMELADENVKFQVGDKTYHGREELKKYMEQLHRHADHIEIDHISVQGDKIRIHARMNVNGREHTFVIQVEIHNGRAKSITFQYG
- protease stability score: 1.53

Sequence: DDKDRRRVAEEVVRAFVQNDPDRLVELADEDARVHYGDRELHGREKARHMLRKFKEQVDTATYQDFNVHGDKVDIKLTAHFNGRTHTQTVIVVIHNGRIKFIEIRSS
- protease stability score: 1.22

Sequence: DEEFQTEAEKMFTNQRNNNEDHLKDQFDKDAKVQVGDKEFHGTERYEETFRTQMEHMRYDIDSFTARVHGEDLDVDVSFQFESNGKPDRNRAKIIATYHNGRIKHLRVDQDQ
- protease stability score: 0.073

Sequence: DQHDAERMNRVFEQNNEEELHQLMDPNVEVTVGNKRVKGRERAKKLFKRLVTNIDHVSYRSVNDDGDKLELKFVAVINGQTYHLKIEVTLHNGKVKSIHLDARDEKLKHLLDEWLH
- protease stability score: 1.39

Sequence: DEKKAEEMLRRVVKLFRNGDVETVRKMGKDDVEVKYLDETRHGPDAMKKMLEKMKKLGAEVEYKEVHVEGDKATVKVEANIDGTTVRFHVTYQVKDHRVENVKVEYSEKAKKAIKHG
- protease stability score: 0.754

Sequence: DEEKVKKLLEQMVRAYVSGHAEEVKKLGKDDGELHAGDQTYHGKEQIYKVVKKFKEYGVQLQITDMKYDGDRLDVKAELHHGGTTWEFRVTVQADGGKVDRLQVDVSEEAKKTIKHG
- protease stability score: 1

Sequence: DEEVAKKMMETWQKVVQKGNDKDARELYKPNGEWVDGDEKHQGVDYVVKALQRVKKYGAEFQVRKAKVEGDTATMVYDLRIGDKTVTFVVQMQADGGRVERVQVKMNEEAKKAVTHG
- protease stability score: 0.786

Sequence: DDDALRRLEELWSALEEGDESRVNRNIDPNARLKIGDTTIHGREKLAESLVRDWKEIKLEIEFKTLEAHNGQARLEAIEHFRINGRPEQINFRMQMHQRNGNVDEIVIEMDPDQQRKKES
- protease stability score: -0.133

Sequence: DEKEVKDADKEMERLMKKNDFQHIVDQMDPNAKIIVGDQDLHGKEEAEKVAQEMDKQIDSIEVKSVHAHGDKAVVHFVNHHNGRNKRVVITLRWSNGRIQEMQIQDQ
- protease stability score: -0.157

Sequence: DDKDLRRVADVMETNDPDRLADLVDENARFIYGDKTYKGEKEATKVWETLYHQVDHKQIHTWDVRGDKLSVKMEMVVNGHDIQVHVRVDVRNGRIKQVELRATNEDDQRFIKRIWG
- protease stability score: 0.218

Sequence: SEEQVEKLVKVMFRAVQNGNKDEVKKYGKSSGQFVFGSDRVEGVDQYVKKLKEVHDRGVQFEFKKFQVKDDTVTMETEVHYGNKTFRVTAQAKYDGGTLDRARVEISEEAKEAYKQG
- protease stability score: 0.368

Sequence: DTQKIVDDIAHEVVEVLKTGDPRKVVKLVDENARLQVGDKIVRGREDVKKRAEKENSRVDHREARVQEVTMHNGDVTIRFRVKDTHNGRSDSREYTIHLQEHDGKVFIQNMEDR
- protease stability score: -0.261

Sequence: DEEQKKHVKEMIEAERTGNEEQARKLVDEDVRANYGDHEVHGRETLRKHVRDVKREWSVQIDDVKLRVHNGRVQMHFDFVRDENGRPEKMTATATAEAHNGKIKEINRQDHK
- protease stability score: -0.204

Sequence: DEHVLELAKELFDALSFGSPEDVHRNADKNARFRIGDTEIKGMEQYVETVHKIKRELRLSITVKSMTAHNGDADIKADAVFNHNGTPRRVKIEVTMHVHNGKAVSVDIQFRK
- protease stability score: 0.848

Sequence: DHEALKVLHKFMEALNTGDPDQLNKNIDPNARFVVGDKTINGREQFREDQRRLKEQIRVYATIRTIRVEGDHANLTVEYEQDHNGKPDSNEVTVTAKLKNGKIQEVREDRKQ
- protease stability score: -0.18

Sequence: DEQKLAEDLAKEIIKALETGNSHRLHELMDENARLRVGDKDYTGDHRIAKWMKHKRDRVDRVEATIQEIDADGDKVTIVIEIVFDHNGRRERVIVDARAEIRGDKVRMKELHWS
- protease stability score: -0.101

Sequence: EEHLESLVRNLEEAVKKGNPEEMKKNLDKNARMVYGDKRLHGMSDILTEIEKRREHMRLEHEVKSIDNQGNKAKVTARLDVNVNGHPVDVDFIIHIKVHNGHVLEIVYQLPPEAHEKLKT
- protease stability score: -0.278

Sequence: EHEQSKLMEHLLRIVETGDDDEFRKNADPNVKFVYGDKEYDGREEAAKALREIKTELRFQLNDVEIRVENGVIEINYDFTANHNGRPQRRTQRATAEYDNGKLKSWSVRDDG
- protease stability score: -0.172

Sequence: DEENRKDAEKYMKVTENNNPDEVSKLVDPNAKLEIGDKTYHGDEWMMDQQQQDRDQARIEVKRVDIKVHNGQINARVRFVKEENGKPDRRDVDIKMNIHNGRLKRAQFKHTE
- protease stability score: 0.064

Sequence: DEDKLRDVAKRLQEIIHTNNPDDLNKQADKDARVQVGDKEYKGRRDVYKFMETLKHQVDQIEIHDVKFDGDHAHFHVMMNVNGKKVEVHIIMEVENGKVKELNFDPKNMEQLDK
- protease stability score: 0.708

Sequence: DDENVKKFAKELLHVIKDNDEDRFRKLAPPNVEAQYGDKTIRGRESAATQFSRVATRIDHVRLEHMTVQGEHVVMKMEVDVNGRNKQLRIVFHVRNGKITSFSMDPEAQRVNSQ
- protease stability score: 0.594

Sequence: DEDKEAKKAIDDWKKIIDTNDEDQARRMFDPNAKVTIGDKTYHGREQASTLFHQLMKRFDHMSFHVDKVRVHNGQVDAVVTARFNHNGRTEEMRLRFRFDDHNGQLVIVQIDWE
- protease stability score: 1.35

Sequence: EEHLKQTFKEYMENYRTGNEEQLHSMVDEEAKFSYGDKKIHGRTEAIKQLVRRREEMRWDVQIKDMEVHNGRIEVDARVRFKHNGQPDDQKVVFRAVIHNGRFKMISEQYQP
- protease stability score: 0.376

Sequence: DDHAVSFVEEMLRIEKTGNHQQLENKADPNAEAEYGDKTYHGMEDFARELVRQLREWRLDYKSIDVQAHNGRAEVDVDVLVDIDGEPVRFRVTIVFQQHNGRLKNQSMRMSTDQLRKQQR
- protease stability score: 0.121

Sequence: DEKALRSAEEWVRQLNENNEDTLMKLADPNAEFSIGDKTVHGREQLREWIKKTLDKMHVHVKDVKYTDSGDKAQIDIDRVNEHNGRPDEDNVEMTMHLDNGTIHSVDVRKKS
- protease stability score: -0.303

Sequence: DEEEAKEFADVFKNGDQDRYADLFDPNARVNIGNKEYHGRERVRTAVRTFFQRIDHIQVNHVRIEGNQLRIDAKMEINGQRIQVVFKVRIHNGHIKQFVVDFRDEQTMREFHKQLE
- protease stability score: 1.27

Sequence: DDQHHAERFVEHVLKQLQTGNENDISKMVDENARVEYGDEEITGRESVVKHLIKEARRVDSIDLKVKSVSKEGDKINVTLVAVLDVNGRKDKRQFRVVMAKQGDKTNIISQHEK
- protease stability score: 0.965

Sequence: DDDAQRRLEDQLKQIEEGNPEQIRNQVDPNATLRYGDKTIQGREEIVKWWKRIRDESRIQFHLKSMEVSGDQVRVVFNLVVKHNGKPSHSQVVVTLRFHNGKVTEVSMQHTS
- protease stability score: 1.71

Sequence: DEELAKHFERVVRENNPDELQKQFDEDARVSVGNKRYHGREKVNDAIKRFMTNADEIRIEDIEIHGETIKVVYRFRVDGQSARVVMVVNIKDGRVKEMKISATDPRDVKVLDEVME
- protease stability score: 1.7

Sequence: DEETTDILNELLRAYQNNDSKRIVELADPNASANIGDKQYHGMEDAARTQVKRMRQIHVEIKHVSSDNQGEKIELEMRFVDNHNGKPEQSTRNMTVVMKNGKVDKFTIRDDG
- protease stability score: 0.085

Sequence: DESEQASEVAHEMRHLYRKNDEDRFRELMDENVRARVGDKEYHGREDVLRMFQHEMRTADHMDVQVNDFRKEGDSIIIHADLKYVSNGNDRTRRLVFVLEVNGDTITLLQQQDQ
- protease stability score: 0.096

Sequence: DDDNVRKYVELMHEGDNEQLVRLADPNVRLQVGDKQYDGREDFEHHLRQIHTQADHFQVQDYHFEGDKAVMDVVMTVNGHQFRFKIHVEVRNGEVKQVQWDFTDPNQRDRFRNNLS
- protease stability score: 0.611

Sequence: DEDVQKIAETFWRVLKQGNEDDARRLIDPNARINVGNKNYHGREQIAEIIKKKKEEIRFSIDDVKVRVHNGELTASIDFKVNVNGRPDSIHVEFRMVVHNGKIVQIQMQVDEDWMKELES
- protease stability score: 0.788

Sequence: DQNDRAEEFFKHWQRILTKNDPDEARKQMDKDVNVVYGDKRYHGREEVVKYLRDNMDRVDSIRVKLDDFKVDNGKATFHARFRQTHNGKDEQHNVVIVAQFKNGKLRAQSYHES
- protease stability score: 1.01

Sequence: DEEKLVQLMDKAFKFIVNGNTEEAQKMGADNVRYEYVDKKYEGPDVAKKMAQLMQKVGVERTVKRQELKGDQATADFDYRKGDKEYRTTAEVKYEGDKIKEARVEVTDEVKEVVHQG
- protease stability score: -0.249

Sequence: DNDTQHRLAERFNHAVETGDPDKIMKLVPEDVRFTVGDKEYHGRESLSKVIKDFRDHADRVKVESVRVNNGRIDVQMRYNRNGQDRVMTFLLTVHNGKIENVNIQSG
- protease stability score: 1.58

Sequence: DEKDNKTYADKVAEMLKHNDPRTARELVDPNAKVQVGDSEVHGREQIENLIKTWNEQVDHVEIKKYRVEGDKVEITFVAESNGKRTHFKVVLKVRNGRATHMTIKRK
- protease stability score: 0.157

Sequence: DEQELAEELFRDLTEAMKKGDPEQRKDLADEDVHQQVGDKTYHGREDNMKAMEELKRNYDSISIKLTSLSVHNGKVRIVFKVDFEHNGKTSTRRVVAHAYLQGDKVKIKKISEQ
- protease stability score: 0.749

Sequence: DEQSVAEELFENLQDAVRENNPDEYKKLVDPNVNFDVGDKKVHGREQASEKFRQDLERADHIDMKVTSLRVDNGRAQADVRVTRVINGESETVEYILRFEVHGDEAVVKSQHDK
- protease stability score: 0.45

Sequence: DEEQMDRFKDLKHALDEGDEDRLKNLVDPNARMRYGDKEVTGMEDIARQQVQRVNEINVEVDRMHVQVHNGTLEIHATVTENHNGKPKKYTFRATARAENGRFVHRVQETRG
- protease stability score: -0.101

Sequence: DETQMDHIRRFFEAVVNGDPDELERQADPNVKFSVGNQQWHGENQLKKEAEKRRKEIRINIKSMEVRVHGDSVVVHIRQEVEVNGQPEDITFTMTVEVSNGKIKSVDVQMDQQEERNVQR
- protease stability score: -0.342

Sequence: DDDKDRKIAEEITKLLKHGNPDELARQADPNVRLEVGDHVYHGRHQMVEWVKHFWERADHLRIKDVTTRPGHVDLVATLRFDGKEAEFKVTFEFHNGRLKRVEVDPEFQKQIDS
- protease stability score: 1.56

Sequence: DDEQANEIISIMETGDPDKLSNMADENAKIVIGDTQIHGREDYERVATILYKQIDHHHFEHLTFTGDKVVIVWQYVVNGKQVRQRVKFDVHNGRLKHMRMEFTDPEELKIVEEILS
- protease stability score: 1.59
